From article doi:10.1101/2025.11.16.688667

Target: Rabbit skeletal actin (actin filaments) (rabbit) (UniProt P68135)
Experiment: high-speed atomic force microscopy

Substance: Recombinant human alpha-actinin-1 ABD-E235K (from UniProt P12814 1-892) (domain or fragment)
- dwell time at 1 uM ABD-E235K: 0.39 s
- dwell time at 2 uM ABD-E235K: 0.4 s
- dwell time at 3 uM ABD-E235K: 0.51 s
